Data reported in article PMC9317633, “Antifungal Effect of Penicillamine Due to the Selective Targeting of L-Homoserine O-Acetyltransferase” (International Journal of Molecular Sciences, 2022).

Columns and labels:
[1] = target: T1, CaMet2NHp (Candida albicans, UniProt Q5A948); test: inhibition, DTNB end-point assay of CoA formed, […] nm; format: biochemical
T1 construct: gene MET2; full length with N-terminal oligo-His tag (kept), ~45 kDa; E. coli Rosetta (DE3) pLysS; dimer only in model
T1 sequence (Q5A948 1-409): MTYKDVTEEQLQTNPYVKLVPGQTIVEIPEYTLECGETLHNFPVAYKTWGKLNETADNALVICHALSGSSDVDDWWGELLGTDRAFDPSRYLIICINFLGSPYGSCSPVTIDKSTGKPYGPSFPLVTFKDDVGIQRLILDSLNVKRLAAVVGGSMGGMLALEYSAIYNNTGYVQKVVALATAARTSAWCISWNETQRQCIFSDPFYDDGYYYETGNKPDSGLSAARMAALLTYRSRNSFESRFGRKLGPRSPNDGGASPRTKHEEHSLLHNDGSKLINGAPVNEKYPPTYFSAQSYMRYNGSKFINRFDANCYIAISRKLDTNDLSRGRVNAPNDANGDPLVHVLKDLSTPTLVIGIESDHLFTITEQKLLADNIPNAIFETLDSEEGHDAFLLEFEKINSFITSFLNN

[2] = target: T1, CaMet2NHp; test: as above; format: biochemical; conditions: read-out: % inhibition at 25 mM
[3] = substrate: CC(=O)SCCNC(=O)CCNC(=O)[C@H](O)C(C)(C)COP(=O)(O)OP(=O)(O)OC[C@H]1O[C@@H](n2cnc3c(N)ncnc32)[C@H](O)[C@@H]1OP(=O)(O)O; test: purified protein; format: biochemical, Candida albicans; conditions: 10 mM L-Hom, pH 8.0 phosphate, 100 mM NaCl, 1 mM EDTA, 37 °C
[4] = substrate: N[C@@H](CCO)C(=O)O; test: purified protein; format: biochemical, Candida albicans; conditions: 3.5 mM AcCoA, pH 8.0 phosphate, 100 mM NaCl, 1 mM EDTA, 37 °C

For `CC(C)(S)[C@H](N)C(=O)O` [L-Pen], the IC50 [1] was about 2000 µM.

With `CSCC[C@H](N)C(=O)O` [L-Met] the inhibition at 25000 µM [2] was 17%.

`CC(C)(S)[C@@H](N)C(=O)O` [D-Pen] gave an IC50 [1] of about 2000 µM.

B1: CaMet2p (Candida albicans SC5314) (protein)
chain: MTYKDVTEEQLQTNPYVKLVPGQTIVEIPEYTLECGETLHNFPVAYKTWGKLNETADNALVICHALSGSSDVDDWWGELLGTDRAFDPSRYLIICINFLGSPYGSCSPVTIDKSTGKPYGPSFPLVTFKDDVGIQRLILDSLNVKRLAAVVGGSMGGMLALEYSAIYNNTGYVQKVVALATAARTSAWCISWNETQRQCIFSDPFYDDGYYYETGNKPDSGLSAARMAALLTYRSRNSFESRFGRKLGPRSPNDGGASPRTKHEEHSLLHNDGSKLINGAPVNEKYPPTYFSAQSYMRYNGSKFINRFDANCYIAISRKLDTNDLSRGRVNAPNDANGDPLVHVLKDLSTPTLVIGIESDHLFTITEQKLLADNIPNAIFETLDSEEGHDAFLLEFEKINSFITSFLNN
notes: E. coli BL21 Star (DE3); dimer only in model
B1 was tested, and the Km [3] was 906 ± 119 µM, the Vmax [3] was 20.1 µmol/min/mg and the kcat [3] was 15.2 ± 0.572 s⁻¹. The kcat/Km [3] was 16800 M⁻¹ s⁻¹, the Km [4] was 405 ± 50 µM and the Vmax [4] was 17.1 µmol/min/mg. It also gave a kcat [4] of 13 ± 0.405 s⁻¹ and a kcat/Km [4] of 32100 M⁻¹ s⁻¹.

B2: CaMet2NHp (Candida albicans SC5314) (protein)
chain: MTYKDVTEEQLQTNPYVKLVPGQTIVEIPEYTLECGETLHNFPVAYKTWGKLNETADNALVICHALSGSSDVDDWWGELLGTDRAFDPSRYLIICINFLGSPYGSCSPVTIDKSTGKPYGPSFPLVTFKDDVGIQRLILDSLNVKRLAAVVGGSMGGMLALEYSAIYNNTGYVQKVVALATAARTSAWCISWNETQRQCIFSDPFYDDGYYYETGNKPDSGLSAARMAALLTYRSRNSFESRFGRKLGPRSPNDGGASPRTKHEEHSLLHNDGSKLINGAPVNEKYPPTYFSAQSYMRYNGSKFINRFDANCYIAISRKLDTNDLSRGRVNAPNDANGDPLVHVLKDLSTPTLVIGIESDHLFTITEQKLLADNIPNAIFETLDSEEGHDAFLLEFEKINSFITSFLNN
notes: full length with N-terminal oligo-His tag (kept), ~45 kDa; E. coli Rosetta (DE3) pLysS; dimer only in model
Molecule B2 has a Km [3] of 1130 ± 150 µM, a Vmax [3] of 19.8 µmol/min/mg and a kcat [3] of 15 ± 0.635 s⁻¹. For the same molecule, the kcat/Km [3] was 13300 M⁻¹ s⁻¹, the Km [4] was 578 ± 118 µM and the Vmax [4] was 17.2 µmol/min/mg. For the same molecule, the kcat [4] was 13.1 ± 0.723 s⁻¹ and the kcat/Km [4] was 22700 M⁻¹ s⁻¹.
